According to the supplement of paper PMC9170038:

Experiments:
MS2 coat protein [1] = experiment: apparent KD of MS2 coat protein, switch ON state; designed switch direction (-1 OFF switch, 1 ON switch): -1; higher = weaker reporter binding; settings: FMN input: 0 or 200 uM; Eterna round: R93 (includes R88 designs)
Procedure, shortened: (§1)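 Apparent KD stands for the median, per design, of fits to normalised cluster binding curves. The curves came from titrating on-chip-transcribed RNA switches on Illumina sequencing clusters with SNAP-549-labelled MS2 coat protein, twofold from 0.7 or 1.5 nM to 3 µM. Buffer was 100 mM Tris-HCl pH 7.5, 80 mM KCl, 4 mM MgCl2, without or with constant ligand.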

MS2 coat protein [2] = experiment: apparent KD of MS2 coat protein, switch OFF state (with FMN for OFF switches, without FMN for ON switches); designed switch direction (-1 OFF switch, 1 ON switch): -1; higher = weaker reporter binding; settings: FMN input: 0 or 200 uM; Eterna round: R93 (includes R88 designs)
Procedure, shortened: as §1

Sequence	apparent KD of MS2 coat protein (MS2 coat protein [1])	apparent KD of MS2 coat protein (MS2 coat protein [2])
AUAAGUCGAGGAUAUACGAAAUGCUAGCGAAAGCUAGCAUAACAUGAGGAUCACCCAUGUAGAAGGCGACAAUA [Tetraloop hairpin BlockHead... 61% 3]	22.9 nM	20.6 nM
AAUUCACAUGAGGAUCACCCAUGUAAGGAUAUCGAAAAAAAACUAAACAAAAAACAAACGAGAAGGUACAAAAA [Exclusion 1 design 5]	25.5 nM	31.6 nM
AAAAAACAUGAGGAUCACCCAUGUCAGGAUAUCCGGAAAAAAAAAAAAAAAAGGCGUUGGAGAAGGGACAUUCC [Chica Displaced 8 - Jieux - Exclusion 1]	28.7 nM	36.8 nM
AGUAACCAAGGAUAUACAAAACCUGUGAUCGAAUGGAUUUUACAUGAGGAUCACCCAUGUAGAAGGUGGAAAGG [Xeedce]	22.7 nM	35 nM
ACAAGGUCAGGAUAUACAUGAGGAUCACCCAUGUGAGAAUUCGAUUAAAACACACAAAGUAGAAGGGACCAGGA [Ruby 83]	22 nM	33.6 nM
AAGAGACAUGAGGAUCACCCAUGUGAGGAUAUGACGUAAAUAAAGAAAGAAGAAAUCGUCAGAAGGCACACCAA [55%, Disencluded 2, 4]	48.4 nM	75.8 nM
AACUAGCUAGGAUAUACAUGAGGAUCACCCAUGUAAAAAAAAAAAAAAAGAUAUAUAUGUAGAAGGAGCUAGUA [Mod of Brourd]	30.5 nM	41.3 nM
AAUAACACAGGAUAUACUAAAGAAAUGAAAAGAAAUAAAGAACAUGAGGAUCACCCAUGUAGAAGGGUGAAUAA [Shenshek]	204 nM	186 nM
AAAAUACAUGAGGAUCACCCAUGUGAGGAUAUUAGAAAGGGAAUAAAAUAACCCAAACUAAGAAGGCACAAAAA [Ex 1 May 27]	28.5 nM	35.3 nM
GGGUCACAUGAGGAUCACCCAUGUAAGGAUAUGCUAGGGAUGGAAACCAGGCCGCAACGCAGAAGGUACUAAAG [Janelle Amethyst 18 Mod 13 - Jieux - Exclusion 1]	50.7 nM	64.5 nM
AACUGACAUGAGGAUCACCCAUGUCAGGAUAUGCUUCAUAAAAAGAAACAAAAAUGAUGCAGAAGGGAUAUGGA [Design 35 :P Sub-opt 11]	13 nM	13.9 nM
AAAAAGUGAGGAUAUACGUUAAAAAAAAAAAAAAAAAAGCGGUAGAAGGCACAUGAGGAUCACCCAUGUAAAAA [Ex4 Malc#3]	57.7 nM	34.7 nM
UAAAGACAUGAGGAUCACCCAUGUGAGGAUAUAGGUGUAUGCAAAAAAAAGCAUACACCUAGAAGGCACAGAAA [JR_Exc001_Sub303]	44 nM	76.3 nM
AAAAAGUCAGGAUAUACAUGAGGAUCACCCAUGUGAAAGAACGAUUAACGAAAAGCAAGUAGAAGGGACAAAAA [Ruby 79]	22.1 nM	23.7 nM
AAAAAGCGAGGAUAUACAUAGCUAAGACAAAUAAGCAAGGGACAUGAGGAUCACCCAUGUAGAAGGCGCAAAAA [Exclusion 2-01... 60% 1]	34.7 nM	97.3 nM
AUCAUGUAAGGAUAUAUAAGAAAAGAAAAGAAAGAAAAGAAAUAGAAGGUACAUGAGGAUCACCCAUGUAAGAA [EteRNA is fun!]	30.8 nM	15.6 nM
AGCAAGUCAGGAUAUACGAAUAAGACAAAAGACGUGAAGGGACAUGAGGAUCACCCAUGUAGAAGGGACAAGCA [LROPPY Exclusion 2 - v01_mod Fisker]	80.9 nM	60.5 nM

Sequence	apparent KD of MS2 coat protein (MS2 coat protein [1])	apparent KD of MS2 coat protein (MS2 coat protein [2])
AACUGACAUGAGGAUCACCCAUGUCAGGAUAUGACUUGACGAAAAAAAACAUGUCAUGUCAGAAGGGACAUGGA [Design 89: Sub-opt Z]	26.4 nM	27.6 nM
AAGAAACAUGAGGAUCACCCAUGUCAGGAUAUCAAAAAGAAAAGAAAAGAAAGAAGAAUGAGAAGGGACAAAGG [Meryibre Khety I]	50.7 nM	61.7 nM
GAAAACAGAGGAUAUACAAAAUUAUGACGAAAGUCAUAAAAACAUGAGGAUCACCCAUGUAGAAGGCUGAAGAA [Meechl MS2 Ex2]	28.2 nM	21.6 nM
AAUUCACAUGAGGAUCACCCAUGUAAGGAUAUCGAAAUAAAACUAAUCAAUAAACAAACGAGAAGGUACAAAAA [Exclusion 1 design 8]	20.4 nM	24 nM
CCAGGACAUGAGGAUCACCCAUGUGAGGAUAUCUGUAUUCAAUCCUCGGAUUGAAUACAGAGAAGGCACAUGGA [Ex1: 659]	38.6 nM	26.8 nM
AGCUAGUCAGGAUAUACGAACAUGUCAGGAGACGUGAAGGGACAUGAGGAUCACCCAUGUAGAAGGGACUAGCG [74%, Web mod - With 3 more G's]	37.2 nM	128 nM
AUAGUACAUGAGGAUCACCCAUGUCAGGAUAUUCGAUAUGAAAAAAAAAAAAAGUUAAGGAGAAGGGACUAUAA [EX1 Malc#13]	26.1 nM	26.1 nM
AAGAAACAUGAGGAUCACCCAUGUCAGGAUAUGCAAAACUGACGAAAGUCAGAAGAAAGCAGAAGGGACUAGAA [5-pair stack]	29.1 nM	52 nM
CUUAUGUGAGGAUAUGUACAGAAAAAAAAGGGUGUAACUGUACAGAAGGCACAUGAGGAUCACCCAUGUGAAUA [EX4 380: S S Pseudoknot 5]	61.9 nM	25.1 nM
GUGUACAGAGGAUAUACAUGGGCAUGAAAACAUGCAUCCUCACAUGAGGAUCACCCAUGUAGAAGGCUGUACAC [Ex2: 706]	24.5 nM	25.7 nM
AAAAAGUGAGGAUAUACGCGAACAAAAAAAAAAAAGAAAGCGUAGAAGGCACAUGAGGAUCACCCAUGUCCAAA [Alfred 64% 4]	28 nM	39 nM
AGUAGAUCAGGAUAUACAUAAAUGAUAAUUAUGUAACUUUUACAUGAGGAUCACCCAUGUAGAAGGGAUCUACA [Ex2 Design 130: Not so Super Stable 18]	14.8 nM	15.8 nM
AAAAAGUAAGGAUAUACAAGAGAAAACACAAAAAAAAAAAAACAUGAGGAUCACCCAUGUAGAAGGUACAAAAA [Diamond 82]	27.5 nM	24.6 nM
AAGAAGUCAGGAUAUGCCAAAGAUCACGAAAGUGACUAAGGGCAGAAGGGACAUGAGGAUCACCCAUGUAAAGA [Opal 4]	42.9 nM	52.8 nM
AAGUUAUUAGGAUAUACUUGUGCGAUUAAUACGUUGAUAGUACAUGAGGAUCACCCAUGUAGAAGGAAUAAAAA [JR_Exc002_Sub411]	38.4 nM	25.9 nM
AAAAAAGGAGGAUAUACGUACAUGUCAAAAGACGUGAAGGGACAUGAGGAUCACCCAUGUAGAAGGCCUAAAAA [JL Part Open 33]	45.2 nM	78.3 nM
AAAAAUUGAGGAUAUACGUACAUGUCAAAAGACGUGAAGGGACAUGAGGAUCACCCAUGUAGAAGGCGAAAGAA [JL Neck Breaker 13]	37.1 nM	16 nM
